Consider two proteins from PMC12154015, “A Novel Approach for the Activity Assessment of L-Asparaginase Formulations When Dealing with Complex Biological Samples” (International Journal of Molecular Sciences, 2025).

Holding throughout (assay): purified protein
Substrate in data set [1]: NC(=O)C[C@H](N)C(=O)O
The format is biochemical, Rhodospirillum rubrum. To be noted: PBS 0.01 M, pH 7.4, 37 °C, [S]0 = 10 mM.

Substrate in data set [2]: Cc1cc(=O)oc2cc(NC(=O)C[C@H](N)C(=O)O)ccc12
Type of data set: biochemical, Rhodospirillum rubrum. To be noted: 37 °C, pH 7.4, table heading says in bovine serum, [S]0 = 1 mM.

Substrate in data set [3]: Cc1cc(=O)oc2cc(NC(=O)C[C@H](N)C(=O)O)ccc12
Type of data set: biochemical, Escherichia coli. To be noted: 37 °C, pH 7.4, table heading says in bovine serum, [S]0 = 1 mM.

Substrate in data set [4]: NC(=O)C[C@H](N)C(=O)O
To be noted: PBS 0.01 M, pH 7.4, 37 °C, [S]0 = 10 mM.

B1: RrA; Rhodospirillum rubrum type I L-ASNase (Rhodospirillum rubrum ATCC 11170) (protein)
chain: MAVSPSPLRIFTAGGTIDKDYRLEENGLVVGDPFVAEVLKTARLAGAVSIVALSRKDSLDFTEADREAIGRAVGQAVEDHILLTHGTDTMVETARYLGGLPELAGKTVVLSGAMVPGRVGGSDAAFNIGFACAAALMLAPGVYIAMHGKVFDPAKTRKNRGLGRFEPIDDQE
notes: recombinant, native (unconjugated); 172 residues, monomer 18 kDa; tetramer/dimer
With B1, the Km in data set [1] and in data set [2] was 4000 ± 300 µM each time.

B2: EcA; E. coli L-ASNase (Veropharm) (Escherichia coli K-12) (protein)
chain: LPNITILATGGTIAGGGDSATKSNYTVGKVGVENLVNAVPQLKDIANVKGEQVVNIGSQDMNDNVWLTLAKKINTDCDKTDGFVITHGTDTMEETAYFLDLTVKCDKPVVMVGAMRPSTSMSADGPFNLYNAVVTAADKASANRGVLVVMNDTVLDGRDVTKTNTTDVATFKSVNYGPLGYIHNGKIDYQRTPARKHTSDTPFDVSKLNELPKVGIVYNYANASDLPAKALVDAGYDGIVSAGVGNGNLYKSVFDTLATAAKTGTAVVRSSRVPTGATTQDAEVDDAKYGFVASGTLNPQKARVLLQLALTQTKDPQQIQQIFNQY
notes: commercial native enzyme (Veropharm), unconjugated; monomer 37 kDa, 348 residues as printed (precursor length); tetramer
On to B2, for which the Km in data set [3] and in data set [4] was 20 ± 3 µM in each case.

The term Km denotes the substrate concentration at which the rate is half of its maximum.
